In US20220235134A1 (SINGLE CELL TECHNOLOGY, published 2022):

T1: B7-H3, native protein on the cell surface of A498 and SK-MES-1 cells (UniProt Q5ZPR3 29-534, limits assumed)
T1 construct: whole, on cells; The cell line is named under assay for each row
T1 sequence (looked up): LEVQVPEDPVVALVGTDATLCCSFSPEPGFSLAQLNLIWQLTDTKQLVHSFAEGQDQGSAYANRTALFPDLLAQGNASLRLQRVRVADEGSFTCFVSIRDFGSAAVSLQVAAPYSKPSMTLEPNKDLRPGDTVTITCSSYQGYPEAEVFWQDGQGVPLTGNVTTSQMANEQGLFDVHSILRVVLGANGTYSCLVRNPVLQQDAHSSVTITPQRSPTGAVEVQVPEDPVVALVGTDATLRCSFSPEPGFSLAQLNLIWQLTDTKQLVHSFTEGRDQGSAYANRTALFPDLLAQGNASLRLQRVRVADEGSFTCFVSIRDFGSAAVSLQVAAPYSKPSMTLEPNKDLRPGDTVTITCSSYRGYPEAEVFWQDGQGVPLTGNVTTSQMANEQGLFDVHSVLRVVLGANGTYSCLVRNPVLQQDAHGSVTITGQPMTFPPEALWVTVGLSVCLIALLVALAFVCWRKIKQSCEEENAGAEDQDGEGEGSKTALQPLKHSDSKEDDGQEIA

T2: Recombinant human B7-H3 (human, UniProt Q5ZPR3 29-466, limits assumed)
T2 construct: also called CD276; B7RP-2
T2 sequence: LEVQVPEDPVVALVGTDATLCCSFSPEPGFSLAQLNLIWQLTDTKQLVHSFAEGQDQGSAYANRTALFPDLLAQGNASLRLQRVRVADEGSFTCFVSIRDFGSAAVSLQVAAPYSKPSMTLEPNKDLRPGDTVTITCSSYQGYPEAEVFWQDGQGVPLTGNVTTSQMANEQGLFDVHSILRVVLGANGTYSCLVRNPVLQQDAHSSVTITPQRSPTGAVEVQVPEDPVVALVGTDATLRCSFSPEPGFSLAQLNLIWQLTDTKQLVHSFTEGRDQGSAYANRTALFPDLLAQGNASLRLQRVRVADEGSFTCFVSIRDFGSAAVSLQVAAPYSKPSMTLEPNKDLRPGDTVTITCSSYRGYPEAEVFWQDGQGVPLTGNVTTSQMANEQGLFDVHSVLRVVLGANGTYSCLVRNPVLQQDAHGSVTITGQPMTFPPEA


Legend:
Recombinant cyno B7-H3 [1] = molecular target: Recombinant cyno B7-H3 (cyno); assay: ELISA, cyno B7-H3 coated on plate
Protocol: (§1) The recombinantly expressed antibodies were used to assess binding activity to B7-H3 by conventional ELISA according to the known art. Recombinant human B7-H3 and cyno B7-H3 were coated onto ELISA plates to detect binding at serially diluted concentrations of the anti-B7-H3 antibody preparations. The binding affinity of select anti-B7-H3 antibodies were measured on a surface plasmon resonance (SPR) instrument, such as a Biacore T200™, against human B7-H3 (table 3) and cyno B7-H3 (table 4). Cell lines expressing B7-H3, A498 and SK-MES-1, were used to assess binding by anti-B7-H3 antibodies on the native protein on the cell surface by flow cytometry according to the known art. […] In addition, the antibody-dependent cellular cytotoxicity (ADCC) activity of select anti-B7-H3 antibodies were assessed using an engineered surrogate effector cell line, kit reagents, and a luminometer (Promega, Madison, Wis.) on A498 and SK-MES-1 as target cells in table 2 under the heading “ADCC (reporter) and FIGS. 1C and 1D. Finally, specificity of each of the antibodies examined thus far were assessed by interacting with proteins from the B7 family (human B7-1, B7-2, PD-L2, PD-L1, B7-H2, B7-H4, B7-H5, B7-H6, B7-H7) against B7-H3 using ELISA. The data were plotted for each antibody on FIGS. 3A through 3E.

[2] = molecular target: T1, B7-H3, native protein on the cell …; assay: flow cytometry (FACS) on A498 cells
Protocol: as §1

[3] = molecular target: T1, B7-H3, native protein on the cell …; assay: cell-based or functional assay
Recombinant human B7-H3 [4] = molecular target: T2, Recombinant human B7-H3; assay: SPR (such as Biacore T200), against human B7-H3
Protocol: as §1

Recombinant human B7-H3 [5] = molecular target: T2, Recombinant human B7-H3; assay: ELISA, recombinant human B7-H3 coated on plate
Protocol: as §1

[6] = molecular target: T1, B7-H3, native protein on the cell …; assay: flow cytometry (FACS) on SK-MES-1 cells
Protocol: as §1

Recombinant cyno B7-H3 [7] = molecular target: Recombinant cyno B7-H3 (cyno); assay: SPR (such as Biacore T200), against cyno B7-H3
Protocol: as §1

| Binder | EC50 (Recombinant cyno B7-H3 [1]) | EC50 [2] | ADCC (reporter) EC50, A498 target cells [3] | ADCC (reporter) EC50, SK-MES-1 target cells [3] | Kd (Recombinant human B7-H3 [4]) | koff (Recombinant human B7-H3 [4]) | kon (Recombinant human B7-H3 [4]) | EC50 (Recombinant human B7-H3 [5]) | EC50 [6] | Kd (Recombinant cyno B7-H3 [7]) | koff (Recombinant cyno B7-H3 [7]) | kon (Recombinant cyno B7-H3 [7]) |
| --- | --- | --- | --- | --- | --- | --- | --- | --- | --- | --- | --- | --- |
| SCT-Da333 (antibody, V domains shown) VH: QVQLQQSGPELVRPGVSVKISCKGSGYTFTDYAVHWVKQSHAKSLEWIGVINTYSGNTYYNLHFKGKATMTVDKSSSTAYMELARLTSEDSAIYYCARRRGSHRDAYFDYWGQGTTLTVSS VL: DIVMTQSHKFMSTSVGDRVSITCRASQDVSTAVAWYQQKPGQSPKLLIYSASYRYTGVPDRFTVSGSGTDFTFTISSVQAEDLAVYYCQQHYSTPWTFGGGTKLEIK | 3.05 nM | 3.29 nM | 23.3 nM | 32.8 nM | 380 nM | 0.0512 s⁻¹ | 135000 M⁻¹ s⁻¹ | 0.00833 nM | 1.94 nM |  |  |  |
| SCT-Da250 (antibody, V domains shown) VH: QGQMQQSGAELVKPGASVRLSCKTSGFTFSSFYISWLKQKPGQSLEWIAWIYAGPGYTSYNQKFTGKAQLTVDTSSSTAYMQFSSLTTEDSAIYYCARHVGRQRGYFDVWGAGTTVTVSS VL: DIVMTQSHKFMSTSVGDRVSITCKASQDVSTAVAWYQQKPGQSPKLLIYSASYRYTGVPDHFTVSGSGTDFTFTISSVQAEDLAVYYCQQHYSTPWTFGGGTKLEIK | 0.0237 nM | 1.43 nM | 2.4 nM | 2.4 nM | 2.75 nM | 0.0011 s⁻¹ | 402000 M⁻¹ s⁻¹ | 0.0226 nM | 1.46 nM | 0.398 nM | 0.000361 s⁻¹ | 905000 M⁻¹ s⁻¹ |

Other lines, results leading:

| EC50 (Recombinant cyno B7-H3 [1]) | EC50 [2] | ADCC (reporter) EC50, A498 target cells [3] | ADCC (reporter) EC50, SK-MES-1 target cells [3] | Kd (Recombinant human B7-H3 [4]) | koff (Recombinant human B7-H3 [4]) | kon (Recombinant human B7-H3 [4]) | EC50 (Recombinant human B7-H3 [5]) | EC50 [6] | Kd (Recombinant cyno B7-H3 [7]) | koff (Recombinant cyno B7-H3 [7]) | kon (Recombinant cyno B7-H3 [7]) | Binder |
| --- | --- | --- | --- | --- | --- | --- | --- | --- | --- | --- | --- | --- |
| 0.0114 nM | 1.6 nM | 3.6 nM | 4.2 nM | 6.41 nM | 0.00234 s⁻¹ | 366000 M⁻¹ s⁻¹ | 0.0076 nM | 1.49 nM | 0.503 nM | 0.000368 s⁻¹ | 731000 M⁻¹ s⁻¹ | SCT-Da148 (antibody, V domains shown) VH: EVQLQQSGAELVKPGASVKLSCTASGVNIKDTYIHWVKQRPEQGLEWIGRIDPANGNRKYDPKFQGKATITADSSSNTAYLQLSSLTSEDTAVYYCARDGYYAPGYWGQGTTLTVSS VL: DIVMTQSQKFMSTSVGDRVSVTCKASQNVGTDVAWYQQKPGQSPKLLIYSASYRFSGVPDRFTGSGSGTDFSLAISNVQSEDLAEYFCQQYNSYPYTFGGGAKLEIK |
| 0.0176 nM | 2.62 nM | 1.1 nM | 0.9 nM | 23.8 nM | 0.00203 s⁻¹ | 85100 M⁻¹ s⁻¹ | 0.0109 nM | 2.32 nM | 1.64 nM | 0.000505 s⁻¹ | 307000 M⁻¹ s⁻¹ | SCT-Da192 (antibody, V domains shown) VH: EVQLQQSGPELVKPGASVKISCKTSGYTFTEYTMHWVKQSHGKSLEWIGVINPNNGGTTYNQKFKGKATLTVDKSSSTAYMELRSLTSEDSAVYYCARPHSLLRLRREFDYWGQGTTLTVSS VL: QIVLTQSPALMSASPGEKVTMTCSASSSVSYMYWYQQKPRSSPKPWIYLTSNLASGVPARFSGSGSGTSYSLTISSMEAEDAATYYCQQWSSNPLTFGAGTKLELK |
| 0.00882 nM | 3.7 nM | 4.5 nM | 4.6 nM | 10.9 nM | 0.00101 s⁻¹ | 92700 M⁻¹ s⁻¹ | 0.0105 nM | 4.09 nM | 1.22 nM | 0.000283 s⁻¹ | 232000 M⁻¹ s⁻¹ | SCT-Da182 (antibody, V domains shown) VH: EVQLQQSGPELVKPGASMKISCKVSGFSFTGYTMNWVKQSHGKNLEWIGLINTYNGGTFYNQKFKAKATLTVDKSSSTAHMELLSLTSEDSAVYYCARSPGRYSMDYWGQGTSVTVSS VL: DIVLTQSPASLAVSLGQRATISCKASQSVDYNGYSYLNWYQQKPGQPPKLLIYPASNLESGIPARFSGSGSGTDFTLNIHPVEEEDAATYYCQQSKEDPYTFGGGTKLEIK |
